Measured values as given in patent US20220227829A1 (SHANGHAI GP BIOTECH, published 2022).

T1: CD25 on the surface of CTLL-2 cells (mouse cytotoxic T lymphocyte cell line) (mouse) (UniProt P01590)
T1 sequence (looked up): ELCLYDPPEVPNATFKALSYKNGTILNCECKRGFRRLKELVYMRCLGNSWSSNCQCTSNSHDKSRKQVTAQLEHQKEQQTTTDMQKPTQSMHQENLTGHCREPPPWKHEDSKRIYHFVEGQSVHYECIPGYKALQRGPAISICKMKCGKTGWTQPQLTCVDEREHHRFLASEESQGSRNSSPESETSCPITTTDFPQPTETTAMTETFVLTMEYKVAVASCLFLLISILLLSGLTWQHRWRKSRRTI

T2: CD25 on the surface of CTLL-2 cells (mouse cytotoxic T lymphocyte cell line) (mouse, UniProt P01590 22-268)
T2 sequence (looked up): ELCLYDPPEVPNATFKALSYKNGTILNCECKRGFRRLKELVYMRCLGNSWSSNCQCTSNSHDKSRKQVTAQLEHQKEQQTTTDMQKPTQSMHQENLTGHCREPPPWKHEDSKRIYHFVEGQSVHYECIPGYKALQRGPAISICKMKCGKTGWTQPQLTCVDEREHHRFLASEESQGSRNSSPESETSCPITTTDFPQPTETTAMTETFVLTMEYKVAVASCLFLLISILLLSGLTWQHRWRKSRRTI

T3: CD25 protein (from Example 2)
T3 chain: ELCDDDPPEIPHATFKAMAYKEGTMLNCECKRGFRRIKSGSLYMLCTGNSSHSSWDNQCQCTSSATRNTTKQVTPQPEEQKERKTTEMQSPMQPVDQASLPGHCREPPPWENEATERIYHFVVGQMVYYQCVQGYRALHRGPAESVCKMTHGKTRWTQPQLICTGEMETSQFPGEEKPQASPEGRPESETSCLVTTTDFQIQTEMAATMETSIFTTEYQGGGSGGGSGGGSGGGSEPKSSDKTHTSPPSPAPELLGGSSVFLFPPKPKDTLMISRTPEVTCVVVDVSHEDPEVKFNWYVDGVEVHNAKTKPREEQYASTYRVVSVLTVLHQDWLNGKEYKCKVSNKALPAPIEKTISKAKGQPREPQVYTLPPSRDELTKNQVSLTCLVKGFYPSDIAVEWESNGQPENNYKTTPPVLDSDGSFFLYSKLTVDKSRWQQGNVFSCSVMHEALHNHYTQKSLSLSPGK

T4: CD25 on the surface of NK92 cells (human NK cell line) (human, UniProt P01589 22-272)
T4 sequence (looked up): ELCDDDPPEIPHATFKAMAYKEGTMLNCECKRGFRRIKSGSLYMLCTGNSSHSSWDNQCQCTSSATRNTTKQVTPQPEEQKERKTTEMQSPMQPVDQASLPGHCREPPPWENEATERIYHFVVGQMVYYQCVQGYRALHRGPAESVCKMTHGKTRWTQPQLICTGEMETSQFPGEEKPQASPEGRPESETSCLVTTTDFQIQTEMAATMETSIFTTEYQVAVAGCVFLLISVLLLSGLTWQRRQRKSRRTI

B1: IL-2gm5 (T3A, M39N, K49N, A73T), IgG1-Fc tag (Fc fusion)
chain: APASSSTKKTQLQLEHLLLDLQMILNGINNYKNPKLTRNLTFKFYMPKNATELKHLQCLEEELKPLEEVLNLTQSKNFHLRPRDLISNINVIVLELKGSETTFMCEYADETATIVEFLNRWITFAQSIISTLTEPKSSDKTHTSPPSPAPELEGGSSVFLFPPKPKDTLMISRTPEVTCVVVDVSHEDPEVKFNWYVDGVEVHNAKTKPREEQYASTYRVVSVLTVLHQDWLNGKAYACAVSNKALPAPIEKTISKAKGQPREPQVYTLPPSREEMTKNQVSLTCLVKGFYPSDIAVEWESNGQPENNYKTTPPVLDSDGSFFLYSKLTVDKSRWQQGNVFSCSVMHEALHNHYTQKSLSLSPGK
B2: IL-2gm6 (T3A, M39N, K49N, A73T, D109N), IgG1-Fc tag (Fc fusion)
chain: APASSSTKKTQLQLEHLLLDLQMILNGINNYKNPKLTRNLTFKFYMPKNATELKHLQCLEEELKPLEEVLNLTQSKNFHLRPRDLISNINVIVLELKGSETTFMCEYANETATIVEFLNRWITFAQSIISTLTEPKSSDKTHTSPPSPAPELEGGSSVFLFPPKPKDTLMISRTPEVTCVVVDVSHEDPEVKFNWYVDGVEVHNAKTKPREEQYASTYRVVSVLTVLHQDWLNGKAYACAVSNKALPAPIEKTISKAKGQPREPQVYTLPPSREEMTKNQVSLTCLVKGFYPSDIAVEWESNGQPENNYKTTPPVLDSDGSFFLYSKLTVDKSRWQQGNVFSCSVMHEALHNHYTQKSLSLSPGK
B3: IL-2qm (T3A, F42A, Y45A, L72G), IgG1-Fc tag (Fc fusion)
chain: APASSSTKKTQLQLEHLLLDLQMILNGINNYKNPKLTRMLTAKFAMPKKATELKHLQCLEEELKPLEEVLNGAQSKNFHLRPRDLISNINVIVLELKGSETTFMCEYADETATIVEFLNRWITFAQSIISTLTEPKSSDKTHTSPPSPAPELEGGSSVFLFPPKPKDTLMISRTPEVTCVVVDVSHEDPEVKFNWYVDGVEVHNAKTKPREEQYASTYRVVSVLTVLHQDWLNGKAYACAVSNKALPAPIEKTISKAKGQPREPQVYTLPPSREEMTKNQVSLTCLVKGFYPSDIAVEWESNGQPENNYKTTPPVLDSDGSFFLYSKLTVDKSRWQQGNVFSCSVMHEALHNHYTQKSLSLSPGK
notes: copies 2 rests on that; also called IL-2qm-Fc; Rocheglicat (CN103492411B)

Legend:
[1] = molecular target: T1, CD25 on the surface of CTLL-2 cells (mouse cytotoxic T lymphocyte cell line) (mouse); test: cell-based or functional assay
[2] = molecular target: CD25 on the surface of NK92 cells (human NK cell line) (human) (UniProt P01589); test: cell-based or functional assay
[3] = molecular target: T2, CD25 on the surface of CTLL-2 cells …; test: cell-based or functional assay
[4] = molecular target: T3, CD25 protein (from Example 2); test: ELISA on coated CD25, sample at 1 ug/ml, relative to rhIL-2 = 100%
Experimental: (§1) CD25 (from Example 2) was coated on a 96-well high adsorption microtiter plate (3590, Costar), washed and blocked. The sample to be tested was diluted to an appropriate concentration and added to wells.

[5] = molecular target: T3, CD25 protein (from Example 2); test: ELISA on coated CD25, sample at 0.04 ug/ml, relative to rhIL-2 = 100%
Experimental: as §1

[6] = molecular target: T3, CD25 protein (from Example 2); test: ELISA on coated CD25
Experimental: as §1

[7] = molecular target: T4, CD25 on the surface of NK92 cells …; test: cell-based or functional assay
[8] = molecular target: T3, CD25 protein (from Example 2); test: ELISA on coated CD25, sample at 0.2 ug/ml, relative to rhIL-2 = 100%
Experimental: as §1

| Binder | EC50 (nM), CTLL-2 cell proliferation [1] [nM] | Potency relative to rhIL-2 (%), CTLL-2 cell proliferation [1] [%] | EC50 (nM), NK92 cell proliferation [2] [nM] | Potency relative to rhIL-2 (%), NK92 cell proliferation [2] [%] | Potency relative to rhIL-2 (%), CTLL-2 cell proliferation [3] [%] | Binding activity (%) [4] [%] | Binding activity (%) [5] [%] | binding result [6] | EC50 (nM), NK92 cell proliferation [7] [nM] | Potency relative to rhIL-2 (%), NK92 cell proliferation [7] [%] | Binding activity (%) [8] [%] |
| --- | --- | --- | --- | --- | --- | --- | --- | --- | --- | --- | --- |
| B1 | 0.173 | 1.68 | 0.0711 | 7.42 | – | – | – | – | – | – | – |
| B2 | 5.95 | 0.049 | 0.824 | 0.641 | – | – | – | – | – | – | – |
| B3 | – | – | – | – | 0 | 0.74 | 1.51 | no binding (tested: 1 ug/ml) | 0.306 | 1.73 | 0.99 |
